Measurements: article PMC9482650, “Quantitative fragmentomics allow affinity mapping of interactomes” (Nature Communications, 2022)

T1: APBA3_1, O96018
T1 sequence (O96018 389-490, limits assumed, looked up): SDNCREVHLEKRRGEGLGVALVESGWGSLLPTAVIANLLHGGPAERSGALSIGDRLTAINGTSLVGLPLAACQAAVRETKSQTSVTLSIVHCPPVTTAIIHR

B1: CLDN3, O15551 (peptide)
chain: GTGYDRKDYV
B2: AQP3, Q92482 (peptide)
chain: LAHVKHKEQI
B3: PLEKHA1, Q9HB21 (peptide)
chain: DDASLPVSDV
B4: SCN8A, Q9UQD0 (peptide)
chain: RQKEVRESKC
B5: SRC, P12931 (peptide)
chain: EPQYQPGENL
B6: FZD4, Q9ULV1 (peptide)
chain: KPGKGSETVV
B7: TIAM1, Q13009 (peptide)
chain: APSRKLNTEI
B8: SDC2, P34741 (peptide)
chain: QKAPTKEFYA
B9: FOXI1, Q12951 (peptide)
chain: VLYPREGTEV
B10: KARS1, Q15046 (peptide)
chain: LESTTVGTSV
B11: GPR12, P47775 (peptide)
chain: AQRARSPSDV
B12: TRIP6, Q15654 (peptide)
chain: ELSATVTTDC
B13: KIRREL1, Q96J84 (peptide)
chain: RFQQRMQTHV
B14: CCRL2, O00421 (peptide)
chain: REEPDHSTEV
B15: PFKM, P08237 (peptide)
chain: TRKRSGEAAV
B16: CACYBP, Q9HB71 (peptide)
chain: EKQAKGDTEF
B17: TECPR2, O15040 (peptide)
chain: EDLEDEWEVI
B18: ABCA2, Q9BZC7 (peptide)
chain: QLSFNTDTLC
B19: SDK2, Q58EX2 (peptide)
chain: APIAGFSSFV
B20: PRKACA, P17612 (peptide)
chain: EKCGKEFSEF
B21: SLC22A9, Q8IVM8 (peptide)
chain: EDPRVEVTQF
B22: FZD2, Q14332 (peptide)
chain: TNSRHGETTV
B23: PTPN18, Q99952 (peptide)
chain: RDPPAEWTRV
B24: ADGRA3, Q8IWK6 (peptide)
chain: TGLWKHETTV
B25: JUP, P14923 (peptide)
chain: PYPTADHMLA
B26: MARCHF3, Q86UD3 (peptide)
chain: VKRNSKETVV
B27: NCF1, P14598 (peptide)
chain: STKRKLASAV
B28: EPHA6, Q9UF33 (peptide)
chain: MHIQEKGFHV
B29: KCNV1, Q6PIU1 (peptide)
chain: RSSGGDDFWF
B30: PTPRZ1, P23471 (peptide)
chain: NIAESLESLV
B31: ZSCAN30, Q86W11 (peptide)
chain: MQHQRTHTRV
B32: CLDN18, P56856 (peptide)
chain: QSYPSKHDYV
B33: CACNA1A, O00555 (peptide)
chain: PYSESDDDWC
B34: HTR2A, P28223 (peptide)
chain: DGVNEKVSCV
B35: PLXNB1, O43157 (peptide)
chain: AAVENKVTDL
B36: SCN5A, Q14524 (peptide)
chain: SPDRDRESIV
B37: TRPV6, Q9H1D0 (peptide)
chain: EDGESWEYQI
B38: PRR16, Q569H4 (peptide)
chain: ILRKSTTTTV
B39: CGN, Q9P2M7 (peptide)
chain: TESNLQTSSC
B40: KCNA7, Q96RP8 (peptide)
chain: PPGKHLVTEV
B41: RNF130, Q86XS8 (peptide)
chain: SLNANEVEWF
B42: FAM110B, Q8TC76 (peptide)
chain: ARESQKVSHV

Assays:
Assay in all cases: holdup assay
Parameters in all cases: key: below the threshold = too weak to quantify, mostly under pKd 3.1 to 4
APBA3_1, O96018 = molecular target: T1, APBA3_1, O96018
CASK, O14936 = molecular target: CASK, O14936
Sequence of CASK, O14936 (O14936 487-570): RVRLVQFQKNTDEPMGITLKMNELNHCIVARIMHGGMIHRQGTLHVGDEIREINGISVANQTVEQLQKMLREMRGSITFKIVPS

TJP2_1, Q9UDY2 = molecular target: TJP2_1, Q9UDY2
Sequence of TJP2_1, Q9UDY2 (Q9UDY2 24-128): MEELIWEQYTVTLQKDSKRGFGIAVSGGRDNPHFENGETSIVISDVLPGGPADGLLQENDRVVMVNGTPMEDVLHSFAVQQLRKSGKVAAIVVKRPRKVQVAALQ

[1] = plain residues with an end cap or a label only (N-terminal biotin on a linker: ado-ado)
[2] = plain residues with an end cap or a label only (N-terminal biotin on a linker: ahx)

Binder	pKd (APBA3_1, O96018; [1])	pKd (CASK, O14936; [1])	pKd (TJP2_1, Q9UDY2; [1])	pKd (APBA3_1, O96018; [2])	pKd (CASK, O14936; [2])	pKd (TJP2_1, Q9UDY2; [2])
B1	below the threshold	below the threshold	3.94			
B2	below the threshold	below the threshold	below the threshold			
B3	below the threshold	below the threshold	below the threshold			
B4	below the threshold	below the threshold	below the threshold			
B5	below the threshold	below the threshold	below the threshold			
B6	below the threshold	below the threshold	below the threshold			
B7				below the threshold	below the threshold	below the threshold
B8	below the threshold	below the threshold	below the threshold			
B9	below the threshold	below the threshold	4			
B10	below the threshold	below the threshold	below the threshold			
B11	below the threshold	below the threshold	below the threshold			
B12	below the threshold	below the threshold	below the threshold			
B13	below the threshold	below the threshold	4.82			
B14	below the threshold	below the threshold	below the threshold			
B15	below the threshold	below the threshold	below the threshold			
B16				below the threshold	below the threshold	below the threshold
B17	below the threshold	below the threshold	below the threshold			
B18	below the threshold	below the threshold	below the threshold			
B19	below the threshold	below the threshold	4.19			
B20	below the threshold	below the threshold	below the threshold			
B21	below the threshold	below the threshold	below the threshold			

Binder	pKd (APBA3_1, O96018; [1])	pKd (CASK, O14936; [1])	pKd (TJP2_1, Q9UDY2; [1])	pKd (APBA3_1, O96018; [2])	pKd (CASK, O14936; [2])	pKd (TJP2_1, Q9UDY2; [2])
B22	below the threshold	below the threshold	below the threshold			
B23	below the threshold	below the threshold	3.6			
B24	below the threshold	below the threshold	3.65			
B25	below the threshold	below the threshold	below the threshold			
B26	below the threshold	below the threshold	3.8			
B27	below the threshold	below the threshold	below the threshold			
B28	below the threshold	below the threshold	below the threshold			
B29	below the threshold	below the threshold	below the threshold			
B30	below the threshold	below the threshold	below the threshold			
B31	below the threshold	below the threshold	4.16			
B32	below the threshold	below the threshold	4.16			
B33	below the threshold	3.53	3.64			
B34	below the threshold	below the threshold	3.82			
B35	below the threshold	below the threshold	below the threshold			
B36	below the threshold	below the threshold	below the threshold			
B37	below the threshold	below the threshold	below the threshold			
B38	below the threshold	below the threshold	3.83			
B39				below the threshold	below the threshold	below the threshold
B40	below the threshold	below the threshold	3.6			
B41	3.55	below the threshold	3.67			
B42	below the threshold	below the threshold	3.87			
